Assay results taken from publication doi:10.1101/2025.06.28.662095, “Mechanistic insights into the allosteric regulation of cell wall hydrolase RipA in Mycobacterium tuberculosis” (bioRxiv, 2025).

Molecular target: T1, MtRipACAT (catalytic domain of M. tuberculosis RipA, residues 261-472) (Mycobacterium tuberculosis, UniProt O53168 261-472)
T1 construct: also called MtRipA catalytic domain; NlpC/P60 catalytic domain; not shown: 6xHis-SUMO, N-terminal, cleaved
T1 sequence: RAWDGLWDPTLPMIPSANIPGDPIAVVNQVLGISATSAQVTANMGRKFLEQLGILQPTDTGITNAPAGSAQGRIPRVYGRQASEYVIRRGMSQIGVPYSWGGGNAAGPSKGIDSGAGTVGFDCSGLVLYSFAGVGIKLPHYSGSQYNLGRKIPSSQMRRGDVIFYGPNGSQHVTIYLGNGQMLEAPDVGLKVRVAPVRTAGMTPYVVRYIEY
Experiment: BLI; biotinylated MtRipACC immobilised on streptavidin biosensors; 25°C; 25 mM HEPES pH 7.5, 150 mM NaCl, 5% glycerol, BSA 1 mg/mL, 0.05% Tween 20; steady-state signal versus concentration, one-site binding model; apparent Kd
Settings: both partners purified

B1: MtRipACC (coiled-coil domain of M. tuberculosis RipA, residues 40-240) (domain or fragment)
chain: DPQTDTIAALIADVAKANQRLQDLSDEVQAEQESVNKAMVDVETARDNAAAAEDDLEVSQRAVKDANAAIAAAQHRFDTFAAATYMNGPSVSYLSASSPDEIIATVTAAKTLSASSQAVMANLQRARTERVNTESAARLAKQKADKAAADAKASQDAAVAALTETRRKFDEQREEVQRLAAERDAAQARLQAARLVAWSSE
modifications: biotinylated with EZ-Link NHS-PEG4-Biotin (20 molar excess) for the BLI assays
notes: also called RipA coiled-coil (CC) domain; MtRipA CC domain; not shown: 6xHis-SUMO, N-terminal, cleaved
Kd: 6.8 ± 1.4 µM
